From patent US20250352661A1 (MYTHIC THERAPEUTICS, published 2025)
Numbering of substitutions follows the chain as printed. In names and notes the source's numbering stands.

T1: Human LRRC15 Protein, His Tag (Acro Biosystems) (human, UniProt Q8TF66 22-538, limits assumed)
T1 sequence (looked up): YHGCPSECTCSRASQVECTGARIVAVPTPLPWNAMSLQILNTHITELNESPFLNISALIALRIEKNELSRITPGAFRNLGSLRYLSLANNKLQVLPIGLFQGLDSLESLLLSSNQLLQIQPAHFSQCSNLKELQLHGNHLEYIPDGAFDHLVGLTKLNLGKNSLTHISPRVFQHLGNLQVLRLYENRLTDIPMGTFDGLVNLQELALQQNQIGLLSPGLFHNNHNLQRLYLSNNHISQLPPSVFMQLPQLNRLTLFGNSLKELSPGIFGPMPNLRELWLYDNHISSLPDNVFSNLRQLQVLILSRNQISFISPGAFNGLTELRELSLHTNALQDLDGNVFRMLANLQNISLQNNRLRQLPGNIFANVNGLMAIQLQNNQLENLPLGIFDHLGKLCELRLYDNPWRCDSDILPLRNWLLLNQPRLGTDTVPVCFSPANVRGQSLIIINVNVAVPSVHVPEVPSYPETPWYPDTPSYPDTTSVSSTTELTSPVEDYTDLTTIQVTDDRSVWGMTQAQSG

T2: Human LRRC15 Protein, His Tag (Acro Biosystems) (human, UniProt Q8TF66 22-538, limits assumed)
T2 construct: not shown: His tag
T2 sequence (looked up): T1 sequence (looked up)

B1: MYT6095 (antibody, V domains shown)
VH: QEQLEESGGDLVKPGASLTLTCTASGLDFRRTNYICWVRQAPGKGLEWIGCIYIHDVVHYYASWAKGRFTFSKTSSTTVTLQMTSLTAADTATYFCARGADGGFVYGMDLWGPGTLVTVSS
VL: DVVMTQTPASVSEPVGGTVTIKCQASQSIGNYLSWYQQKPGQRPKRLIYSASTLPSGVPSRFKGAGSGTEFTLTISDLESADAATYYCQNNYWLAGYGHPFGGGTEVVVK
notes: chimeric rabbit 15G7 variant (rabbit variable domains, human constant regions); also called 15G7 VH A55H
B2: MYT6108 (antibody, V domains shown)
VH: B1 VH with H55A, A97H
VL: B1 VL
notes: chimeric rabbit 15G7 variant (rabbit variable domains, human constant regions); also called 15G7 VH A97H
B3: MYT6109 (antibody, V domains shown)
VH: B1 VH with H55A, R98H
VL: B1 VL
notes: chimeric rabbit 15G7 variant (rabbit variable domains, human constant regions); also called 15G7 VH R98H
B4: MYT6100 (antibody, V domains shown)
VH: B1 VH with H55A, Y60H
VL: B1 VL
notes: chimeric rabbit 15G7 variant (rabbit variable domains, human constant regions); also called 15G7 VH Y60H
B5: MYT6097 (antibody, V domains shown)
VH: B1 VH with H55A, V57H
VL: B1 VL
notes: chimeric rabbit 15G7 variant (rabbit variable domains, human constant regions); also called 15G7 VH V57H
B6: MYT6099 (antibody, V domains shown)
VH: B1 VH with H55A, H59A
VL: B1 VL
notes: chimeric rabbit 15G7 variant (rabbit variable domains, human constant regions); also called 15G7 VH H59A
B7: MYT6096 (antibody, V domains shown)
VH: B1 VH with H55A, D56H
VL: B1 VL
notes: chimeric rabbit 15G7 variant (rabbit variable domains, human constant regions); also called 15G7 VH D56H
B8: MYT6098 (antibody, V domains shown)
VH: B1 VH with H55A, V58H
VL: B1 VL
notes: chimeric rabbit 15G7 variant (rabbit variable domains, human constant regions); also called 15G7 VH V58H
B9: MYT6101 (antibody, V domains shown)
VH: B1 VH with H55A, Y61H
VL: B1 VL
notes: chimeric rabbit 15G7 variant (rabbit variable domains, human constant regions); also called 15G7 VH Y61H
B10: MYT6110 (antibody, V domains shown)
VH: B1 VH with H55A, G99H
VL: B1 VL
notes: chimeric rabbit 15G7 variant (rabbit variable domains, human constant regions); also called 15G7 VH G99H
B11: MYT6107 (antibody, V domains shown)
VH: B1 VH with H55A, G67H
VL: B1 VL
notes: chimeric rabbit 15G7 variant (rabbit variable domains, human constant regions); also called 15G7 VH G67H
B12: MYT6106 (antibody, V domains shown)
VH: B1 VH with H55A, K66H
VL: B1 VL
notes: chimeric rabbit 15G7 variant (rabbit variable domains, human constant regions); also called 15G7 VH K66H
B13: MYT6105 (antibody, V domains shown)
VH: B1 VH with H55A, A65H
VL: B1 VL
notes: chimeric rabbit 15G7 variant (rabbit variable domains, human constant regions); also called 15G7 VH A65H
B14: MYT6103 (antibody, V domains shown)
VH: B1 VH with H55A, S63H
VL: B1 VL
notes: chimeric rabbit 15G7 variant (rabbit variable domains, human constant regions); also called 15G7 VH S63H
B15: MYT9684 (antibody, V domains shown)
VH: EVQLVESGGGLVQPGGSLRLSCTASEFSFSSSHWICWVRQAPGKGLEWVGCIYAGSIGSTYYASWAKGRFTISRDTSKNTVYLQMNSLRAEDTAVYYCARAPNDIYNYYFNLWGQGTLVTVSS
VL: EIVMTQSPSTLSASVGDRVIITCQASENIYNYLAWYQQKPGKAPKLLIYYASTLASGVPSRFSGSGSGAEFTLTISSLQPDDFATYYCQSGYVSKSSTFGQGTKLTVL
notes: also called hu29F1 VH G26E
B16: MYT9691 (antibody, V domains shown)
VH: B15 VH with E26G, H33E
VL: B15 VL
notes: also called hu29F1 VH H33E
B17: MYT9686 (antibody, V domains shown)
VH: B15 VH with E26G, S28E
VL: B15 VL
notes: also called hu29F1 VH S28E
B18: MYT9690 (antibody, V domains shown)
VH: B15 VH with E26G, S32E
VL: B15 VL
notes: also called hu29F1 VH S32E
B19: MYT9699 (antibody, V domains shown)
VH: B15 VH with E26G, G55E
VL: B15 VL
notes: also called hu29F1 VH G55E
B20: MYT9689 (antibody, V domains shown)
VH: B15 VH with E26G, S31E
VL: B15 VL
notes: also called hu29F1 VH S31E
B21: MYT9685 (antibody, V domains shown)
VH: B15 VH with E26G, F27E
VL: B15 VL
notes: also called hu29F1 VH F27E
B22: MYT9688 (antibody, V domains shown)
VH: B15 VH with E26G, S30E
VL: B15 VL
notes: also called hu29F1 VH S30E
B23: MYT9696 (antibody, V domains shown)
VH: B15 VH with E26G, I52E
VL: B15 VL
notes: also called hu29F1 VH I52E
B24: MYT9701 (antibody, V domains shown)
VH: B15 VH with E26G, I57E
VL: B15 VL
notes: also called hu29F1 VH I57E
B25: MYT9703 (antibody, V domains shown)
VH: B15 VH with E26G, S59E
VL: B15 VL
notes: Humanized 29F1 VH glutamate variant; also called hu29F1 VH S59E
B26: MYT9704 (antibody, V domains shown)
VH: B15 VH with E26G, T60E
VL: B15 VL
notes: also called hu29F1 VH T60E
B27: MYT9693 (antibody, V domains shown)
VH: B15 VH with E26G, I35E
VL: B15 VL
notes: also called hu29F1 VH I35E
B28: MYT9702 (antibody, V domains shown)
VH: B15 VH with E26G, G58E
VL: B15 VL
notes: also called hu29F1 VH G58E

Molecular target: T1, Human LRRC15 Protein, His Tag (Acro …)
Assay: BLI; dissociation pH 7.4 black, pH 5.4 grey [1/2); D00006 FIG. 1E (1/2]
Description: For each individual plot, antigen binding proteins were captured on anti-human Fc biosensors and associated with LRRC15 at pH 7.4. Dissociation was at pH 7.4 (black) or pH 5.4 (grey). Major X-axis ticks=100 seconds, with left dashed vertical line=0 seconds. Major Y-axis ticks=0.5 nm and octet plots are shown MYT5712 and MYT6080-MYT6121.
Multiple LRRC15-binding monoclonal antibodies have been described in the literature and can be used as a template for engineering pH-dependent binding. We selected discovery RabMAb clone 15G7 (rabbit VH SEQ ID NO: 378, rabbit VL SEQ ID NO: 451; humanized VH SEQ ID NO: 382, humanized VL SEQ ID NO: 455) as a LRRC15-binding monoclonal antibody for pH-engineering via histidine scanning. […] To generate pH-dependent sequence variants, individual amino acid residues within the heavy chain CDRs were systematically substituted with a histidine (or alanine if H was already present in a given position; e.g., MYT6099), one at a time (rabbit, MYT6080-6121). Desirable mutations were transferred to a humanized framework (humanized, MYT 8387-8411). After allowing for four days of protein expression, cell culture supernatants were collected, quantified by SDS-PAGE analysis, and the pH dependence of the variant was evaluated using biolayer interferometry (BLI) on an Octet RED 96e instrument. Briefly, cell culture supernatants were diluted based on qualitative expression level of the variant determined by visual examination of SDS-PAGE gels, 5 μL of cell culture supernatant was diluted into 195 μL of 1×PBST, pH 7.4 for high expressors, 25 μL of cell culture supernatant was diluted into 175 μL of 1×PBST, pH 7.4 for medium expressors and 100 μL of cell culture supernatant was diluted into 100 μL of 1×PBST, pH 7.4 for low expressors for loading onto the sensor tips.

Row | binding result | Binder
1 | binds | B1
2 | binds | B2
3 | binds | B3
4 | binds | B4
5 | binds | B5
6 | binds | B6
7 | binds | B7
8 | binds | B8
9 | binds | B9
10 | binds | B10
11 | binds | B11
12 | binds | B12
13 | binds | B13
14 | binds | B14

Molecular target: T2, Human LRRC15 Protein, His Tag (Acro …)
Assay: BLI; dissociation pH 7.4 black, pH 5.4 grey [1/2); D00025 FIG. 6B (1/2]
Experimental: Desirable mutations were transferred to a humanized framework (humanized, MYT 8387-8411). After allowing for four days of protein expression, cell culture supernatants were collected, quantified by SDS-PAGE analysis, and the pH dependence of the variant was evaluated using biolayer interferometry (BLI) on an Octet RED 96e instrument. Briefly, cell culture supernatants were diluted based on qualitative expression level of the variant determined by visual examination of SDS-PAGE gels, 5 μL of cell culture supernatant was diluted into 195 μL of 1×PBST, pH 7.4 for high expressors, 25 μL of cell culture supernatant was diluted into 175 μL of 1×PBST, pH 7.4 for medium expressors and 100 μL of cell culture supernatant was diluted into 100 μL of 1×PBST, pH 7.4 for low expressors for loading onto the sensor tips. The resulting diluted supernatants were then captured on an anti-human Fc sensor (Forte Bio). A baseline was established using 1×PBST (50 mM Potassium Phosphate Buffer+150 mM NaCl+0.05% Tween 20) pH 7.4, and the […] was associated with 50 nM of LRRC15 (Human LRRC15 Protein, His Tag, Acro Biosystems) in 1×PBST pH 7.4 for 120 sec to generate an association curve. In the dissociation phase, the antibody-antigen complex on the sensor was exposed to 1×PBST pH 7.4 or pH 5.4, for 300 sec. Association and dissociation phase curves were examined for the starting ABPC antibody (with no substitutions) and each corresponding antibody variant at pH 5.4 and pH 7.4 to inform on two criteria: a) enhanced dissociation (i.e., higher koff values) at pH 5.4 due to histidine substitution compared to the starting ABPC, (with no substitutions), and b) reduced dissociation at pH 7.4 (i.e., lower koff values) compared to pH 5.4 in the antibody variant itself and with the starting ABPC (with no substitutions).
The methods of Examples 9-10 were applied to RabMAb clone 29F1 (rabbit VH SEQ ID NO: 572 and VL SEQ ID NO: 578; and humanized VH SEQ ID NO: 576 and VL SEQ ID NO: 582).

Row | binding result | Binder
15 | binds | B15
16 | binds | B16
17 | binds | B17
18 | binds | B18
19 | binds | B19
20 | binds | B20
21 | binds | B21
22 | binds | B22
23 | binds | B23
24 | binds | B24
25 | binds | B25
26 | binds | B26
27 | binds | B27
28 | binds | B28
